In patent publication US20220290113A1:

Biological target: Plasmid-expressed Nme2Cas9 (human-codon-optimized, with NLSs and 3xHA tag), expressed in HEK293T cells (Neisseria meningitidis strain Del1444)
Experiment: cell-based or functional assay
Conditions: scale: mass ratio of Acr plasmid to Nme2Cas9 plasmid

AcrIIC1Nme gave a dose dependence of Acr inhibition of Nme2Cas9 genome editing: mass ratio of cotransfected Acr and Nme2Cas9 plasmids giving full inhibition of 2.

AcrIIC4Hpa showed a dose dependence of Acr inhibition of Nme2Cas9 genome editing: mass ratio of cotransfected Acr and Nme2Cas9 plasmids giving full inhibition of 1.
